Values belong to the binder of their own block, whether it stands above or below them.
Molecular target: mouse OX40 receptor, cell-expressed (DO11.10-mOX40) (mouse) (UniProt P47741)
Experiment: cell-based or functional assay

Chain of mouse OX40 receptor, cell-expressed (DO11.10-mOX40) (mouse) (P47741 20-272): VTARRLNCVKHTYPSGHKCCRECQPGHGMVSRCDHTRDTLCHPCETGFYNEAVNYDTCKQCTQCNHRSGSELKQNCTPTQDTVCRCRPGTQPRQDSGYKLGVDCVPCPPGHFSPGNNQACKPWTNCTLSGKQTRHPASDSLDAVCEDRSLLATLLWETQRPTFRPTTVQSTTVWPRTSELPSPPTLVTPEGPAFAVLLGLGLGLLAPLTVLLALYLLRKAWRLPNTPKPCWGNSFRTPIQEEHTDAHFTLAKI

B1: G1/OX86 (antibody, from another filing, human IgG1, V domains shown)
VH: QVQLKESGPGLVQPSQTLSLTCTVSGFSLTGYNLHWVRQPPGKGLEWMGRMRYDGDIYYNSVLKSRLSISRDTSKNQVFLKMNSLQTDDTAIYYCTRDGRGDSFDYWGQGVMVTVSS
VL: DIVMTQGALPNPVPSGESASITCRSSQSLVYKDGQTYLNWFLQRPGQSPQLLTYWMSTRASGVSDRFSGSGSGTYFTLKISRVRAEDAGVYYCQQVREYPFTFGSGTKLEIKR
EC50 of IL-2 release, HPAC cells present, + a-hFc: 0.811 nM
EC50 of IL-2 release, Xlink (anti-hFc): 15.6 nM
Max response, HPAC cells present, + a-hFc: 17900 mIL-2 pg/ml
Max response, Xlink (anti-hFc): 16200 mIL-2 pg/ml

B3: FS20m-232-91AA/C9B7W (bispecific antibody, part only; not given: C9B7W Fab and upper Fc, human IgG1, part only)
heavy, part: GQPREPQVYTLPPSRDELFDPMYYYNQVSLTCLVKGFYPSDIAVEWESNGEPLWDYKTTPPVLDSDGSFFLYSKLTVWRDRWEDGNVFSCSVMHEALHNHYTQKSLSLSPGK
EC50 of IL-2 release, no added crosslinker (LAG3 co-expressed on T cells): 0.175 nM
Max response, no added crosslinker (LAG3 co-expressed on T cells): 9670 mIL-2 pg/ml

Other lines, results leading:

EC50 of IL-2 release, HPAC cells present, + a-hFc: 0.289 nM
Max response, HPAC cells present, + a-hFc: 18800 mIL-2 pg/ml
Max response, crosslinked by EphA2 on HPAC cells, no crosslinking agent: 11000 mIL-2 pg/ml
B2: FS20m-232-91AA/E2A (bispecific antibody, part only; not given: E2A Fab and upper Fc, human IgG1, part only)
heavy, part: GQPREPQVYTLPPSRDELFDPMYYYNQVSLTCLVKGFYPSDIAVEWESNGEPLWDYKTTPPVLDSDGSFFLYSKLTVWRDRWEDGNVFSCSVMHEALHNHYTQKSLSLSPGK

EC50 of IL-2 release, Xlink (VEGF): 0.144 nM
EC50 of IL-2 release, no added crosslinker: 29.9 nM
Max response, Xlink (VEGF): 15100 mIL-2 pg/ml
Max response, no added crosslinker: 16700 mIL-2 pg/ml
B4: FS20m-232-91AA/R84 (bispecific antibody, part only; not given: R84 Fab and upper Fc, human IgG1, part only)
heavy, part: GQPREPQVYTLPPSRDELFDPMYYYNQVSLTCLVKGFYPSDIAVEWESNGEPLWDYKTTPPVLDSDGSFFLYSKLTVWRDRWEDGNVFSCSVMHEALHNHYTQKSLSLSPGK
